In patent US20150274826A1 (ARCH ONCOLOGY, published 2015):

T1: mouse CD47 (mouse, UniProt Q61735 19-303)
T1 construct: whole, on cells; also called CD47 on mouse RBCs; CD47 on 4T1 cells
T1 sequence (looked up): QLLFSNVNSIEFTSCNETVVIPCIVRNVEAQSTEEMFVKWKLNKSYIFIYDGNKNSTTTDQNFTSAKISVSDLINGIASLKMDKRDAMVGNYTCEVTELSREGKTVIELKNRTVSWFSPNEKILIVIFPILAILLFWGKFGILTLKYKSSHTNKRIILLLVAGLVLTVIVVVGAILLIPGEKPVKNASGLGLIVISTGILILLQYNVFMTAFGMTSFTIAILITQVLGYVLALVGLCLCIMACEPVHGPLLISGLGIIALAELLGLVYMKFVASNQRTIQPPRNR

T2: rat CD47 (rat, UniProt P97829 19-303)
T2 construct: whole, on cells; also called CD47 on rat RBCs
T2 sequence (looked up): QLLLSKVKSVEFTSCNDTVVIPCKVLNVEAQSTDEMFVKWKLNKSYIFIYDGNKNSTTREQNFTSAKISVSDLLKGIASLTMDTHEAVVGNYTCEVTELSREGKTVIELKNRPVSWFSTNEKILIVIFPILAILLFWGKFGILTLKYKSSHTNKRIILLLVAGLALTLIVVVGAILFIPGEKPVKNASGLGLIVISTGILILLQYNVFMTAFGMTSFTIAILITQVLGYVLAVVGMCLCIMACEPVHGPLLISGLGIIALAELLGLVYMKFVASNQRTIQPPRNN

T3: pig CD47 (pig, UniProt Q9GKE8 19-303)
T3 construct: whole, on cells; also called CD47 on porcine RBCs
T3 sequence (looked up): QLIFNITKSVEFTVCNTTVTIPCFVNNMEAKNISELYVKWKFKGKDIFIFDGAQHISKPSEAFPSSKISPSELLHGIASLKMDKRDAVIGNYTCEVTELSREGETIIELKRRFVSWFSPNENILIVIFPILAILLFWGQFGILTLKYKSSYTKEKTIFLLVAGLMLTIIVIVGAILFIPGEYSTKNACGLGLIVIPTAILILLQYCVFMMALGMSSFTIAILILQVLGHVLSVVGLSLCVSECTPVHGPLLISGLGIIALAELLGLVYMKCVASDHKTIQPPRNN

T4: dog CD47 (dog, UniProt A0A8I3PM61 19-310)
T4 construct: also called CD47 on dog RBCs
T4 sequence: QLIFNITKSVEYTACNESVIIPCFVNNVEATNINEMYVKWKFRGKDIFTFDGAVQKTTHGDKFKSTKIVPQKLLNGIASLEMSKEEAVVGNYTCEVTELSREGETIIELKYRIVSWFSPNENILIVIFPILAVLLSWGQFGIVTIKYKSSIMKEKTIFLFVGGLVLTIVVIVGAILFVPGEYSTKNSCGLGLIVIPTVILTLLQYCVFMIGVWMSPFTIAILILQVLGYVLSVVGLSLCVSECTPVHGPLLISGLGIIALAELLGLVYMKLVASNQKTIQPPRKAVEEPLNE


Columns and labels:
[1] = target: T5, human CD47 (human, UniProt Q08722 19-323); test: flow cytometry on RBCs, CHO supernatant 10 ng/ml
T5 construct: whole, on cells; also called CD47 on human RBCs; CD47 on OV10 cells
T5 sequence (Q08722 19-323): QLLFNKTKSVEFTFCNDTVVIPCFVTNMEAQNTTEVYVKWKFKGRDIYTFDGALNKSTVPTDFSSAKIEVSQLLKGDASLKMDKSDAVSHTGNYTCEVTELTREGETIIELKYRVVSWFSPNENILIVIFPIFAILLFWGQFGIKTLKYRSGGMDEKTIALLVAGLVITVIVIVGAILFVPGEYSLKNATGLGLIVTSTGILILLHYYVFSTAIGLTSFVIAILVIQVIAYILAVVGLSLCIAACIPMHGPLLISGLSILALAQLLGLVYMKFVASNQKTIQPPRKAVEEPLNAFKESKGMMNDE
Description: (§1) RBCs are incubated for 60 minutes on ice with tissue culture supernatants containing the secreted humanized antibodies at a concentration of 10 ng/ml in a solution of phosphate buffered saline, pH 7.2, 2.5 mM EDTA (PBS+E), or with various concentrations of purified antibodies. Cells are then washed with cold PBS+E, and incubated for an additional hour on ice with FITC labeled donkey anti-human antibody (Jackson Immuno Research Labs, West Grove, Pa.; Catalogue #709-096-149) in PBS+E. Cells are then washed with PBS+E, and antibody binding is analyzed using a BD FACSAria Cell Sorter (Becton Dickinson) or a C6 Accuri Flow Cytometer (Becton Dickinson). Antibody binding is quantitated by comparison of mean fluorescence values relative to that of chimeric antibody >VxP037-01LC (SEQ ID NO:7))/>VxPO37-01HC (SEQ ID NO:57). The mean fluorescence value for each antibody is divided by the mean fluorescence value for the chimeric antibody.

[2] = target: T1, mouse CD47; test: flow cytometry on RBCs, CHO supernatant 10 ng/ml
Description: as §1

[3] = target: T2, rat CD47; test: flow cytometry on RBCs, CHO supernatant 10 ng/ml
Description: as §1

[4] = target: T3, pig CD47; test: flow cytometry on RBCs, CHO supernatant 10 ng/ml
Description: as §1

[5] = target: T4, dog CD47; test: flow cytometry on RBCs, CHO supernatant 10 ng/ml
Description: as §1

[6] = target: T5, human CD47; test: flow cytometry on human RBCs, apparent Kd, non-linear fit
Description: as §1

[7] = target: T5, human CD47; test: flow cytometry on human RBCs, non-linear fit of median fluorescence
Description: as §1

[8] = target: T1, mouse CD47; test: cell-based ELISA on mouse 4T1 cells, apparent Kd
Description: (§2) OV10 cells are grown in IMDM medium containing 10% heat inactivated fetal bovine serum (BioWest; S01520) and 4T1 cells are grown in RMPI medium containing 10% heat inactivated fetal bovine serum (BioWest; S01520). One day before assay, 3×10⁴ cells are plated in 96 well cell bind plates (Corning #3300, VWR #66025-626) so that they are 95-100% confluent at the time of assay. Cells are washed and various concentrations of purified antibodies added in either IMDM or RPMI at 37° C. for 1 hour in […]. Cells are then washed with media and incubated for an additional hour at 37° C. with HRP labeled secondary anti-human antibody (Promega) diluted 1/2500 in media. Cells are washed three times with PBS, and the peroxidase substrate 3,3′,5,5′-tetramethylbenzidine is added (Sigma; Catalog #T4444). Reactions are terminated by the addition of HCl to 0.7N, and absorbance at 450 nm is determined using a Tecan model Infinite M200 plate reader. The apparent binding affinities of these clones to human and mouse cells is determined by non-linear fits (Prism GraphPad software). […] Agglutination of human RBCs is assessed following incubation of human RBCs with various concentrations of humanized blocking only clones. Blood is diluted (1:50) and washed 3 times with PBS/EDTA/BSA. RBCs are added to U-bottomed 96 well plates with equal volumes of the antibodies (75 μl) and incubated for 3 hrs at 37° C. and overnight at 4° C.

[9] = target: T5, human CD47; test: cell-based ELISA on human OV10 cells, apparent Kd
Description: as §2

Row | Binder | Kd [8] | Kd [9] | other results
1 | Clone 1 (pVxK7b-037-hum01-LC / pVxK7b-037-hum01-HC) (antibody, human IgG1, kappa, also called Cl 1) heavy: not shown light: DIVMTQTPLSLPVTPGEPASISCRSSQSLVHSNGNTYLHWYQQKPGKAPKLLIYKVSYRFSGVPDRFSGSGSGTDFTLKISRVEAEDVGVYYCSQNTHVPRTFGQGTKVEIKRTVAAPSVFIFPPSDEQLKSGTASVVCLLNNFYPREAKVQWKVDNALQSGNSQESVTEQDSKDSTYSLSSTLTLSKADYEKHKVYACEVTHQGLSSPVTKSFNRGEC | – | – | mean fluorescence relative to chimeric antibody [1]: 1.1 ratio; mean fluorescence relative to chimeric antibody [2]: 1.7 ratio; mean fluorescence relative to chimeric antibody [3]: 2.7 ratio; mean fluorescence relative to chimeric antibody [4]: 1.3 ratio; mean fluorescence relative to chimeric antibody [5]: 1 ratio; Kd [6]: 1.51 nM; Kd [7]: 0.226 µg/mL
2 | Clone 8.2 (hum08 IgG4 S228P L235E) (antibody, IgG4 S228P L235E) heavy: not shown light: DIVMTQTPLSLPVTPGEPASISCRSSQSLVHSNGNTYLHWYQQKPGKAPKLLIYKVSYRFSGVPDRFSGSGSGTDFTLKISRVEAEDVGVYYCSQNTHVPRTFGQGTKVEIKRTVAAPSVFIFPPSDEQLKSGTASVVCLLNNFYPREAKVQWKVDNALQSGNSQESVTEQDSKDSTYSLSSTLTLSKADYEKHKVYACEVTHQGLSSPVTKSFNRGEC | 0.0949 nM | 0.121 nM | –
3 | Clone 17.1 (hum17 IgG1 N297Q) (antibody, IgG1 N297Q) heavy: EVQLVQSGAEVKKPGATVKISCKVSGYTFTNYYVFWIRQPPGKGLEWIGDINPVNGDTNFNEKFKNRVTITADKSTSTAYMELSSLRSEDTAVYYCARGGYTMDYWGQGTLVTVSSASTKGPSVFPLAPSSKSTSGGTAALGCLVKDYFPEPVTVSWNSGALTSGVHTFPAVLQSSGLYSLSSVVTVPSSSLGTQTYICNVNHKPSNTKVDKKVEPKSCDKTHTCPPCPAPELLGGPSVFLFPPKPKDTLMISRTPEVTCVVVDVSHEDPEVKFNWYVDGVEVHNAKTKPREEQYQSTYRVVSVLTVLHQDWLNGKEYKCKVSNKALPAPIEKTISKAKGQPREPQVYTLPPSR light: AIQLTQSPSSLSASVGDRVTITCRSSQSLVHSNGNTYLHWYQQKPGQAPRLLIYKVSYRFSGVPDRFSGSGSGTDFTLKISRVEAEDVGVYYCSQNTHVPRTFGQGTKVEIKRTVAAPSVFIFPPSDEQLKSGTASVVCLLNNFYPREAKVQWKVDNALQSGNSQESVTEQDSKDSTYSLSSTLTLSKADYEKHKVYACEVTHQGLSSPVTKSFNRGEC | 0.198 nM | 0.0855 nM | –
4 | Clone 17.2 (hum17 IgG4 S228P L235E) (antibody, IgG4 S228P L235E) heavy: not shown light: AIQLTQSPSSLSASVGDRVTITCRSSQSLVHSNGNTYLHWYQQKPGQAPRLLIYKVSYRFSGVPDRFSGSGSGTDFTLKISRVEAEDVGVYYCSQNTHVPRTFGQGTKVEIKRTVAAPSVFIFPPSDEQLKSGTASVVCLLNNFYPREAKVQWKVDNALQSGNSQESVTEQDSKDSTYSLSSTLTLSKADYEKHKVYACEVTHQGLSSPVTKSFNRGEC | 0.147 nM | 0.121 nM | –
5 | Clone 20.1 (hum20 IgG1 N297Q) (antibody, IgG1 N297Q) heavy: QITLKESGPTLVKPTQTLTLTCTFSGYTFTNYYVFWVRQAPGQGLEWMGDINPVNGDTNFNEKFKNRVTITADKSTSTAYMELSSLRSEDTAVYYCARGGYTMDYWGQGTLVTVSSASTKGPSVFPLAPSSKSTSGGTAALGCLVKDYFPEPVTVSWNSGALTSGVHTFPAVLQSSGLYSLSSVVTVPSSSLGTQTYICNVNHKPSNTKVDKKVEPKSCDKTHTCPPCPAPELLGGPSVFLFPPKPKDTLMISRTPEVTCVVVDVSHEDPEVKFNWYVDGVEVHNAKTKPREEQYQSTYRVVSVLTVLHQDWLNGKEYKCKVSNKALPAPIEKTISKAKGQPREPQVYTLPPSR light: DIVMTQTPLSLPVTPGEPASISCRSSQSLVHSNGNTYLHWYLQKPGQSPQLLIYKVSYRFSGVPDRFSGSGSGTDFTLKISRVEAEDVGVYYCSQNTHVPRTFGQGTKVEIKRTVAAPSVFIFPPSDEQLKSGTASVVCLLNNFYPREAKVQWKVDNALQSGNSQESVTEQDSKDSTYSLSSTLTLSKADYEKHKVYACEVTHQGLSSPVTKSFNRGEC | 0.237 nM | 0.121 nM | –
6 | Clone 20.2 (hum20 IgG4 S228P L235E) (antibody, IgG4 S228P L235E) heavy: not shown light: DIVMTQTPLSLPVTPGEPASISCRSSQSLVHSNGNTYLHWYLQKPGQSPQLLIYKVSYRFSGVPDRFSGSGSGTDFTLKISRVEAEDVGVYYCSQNTHVPRTFGQGTKVEIKRTVAAPSVFIFPPSDEQLKSGTASVVCLLNNFYPREAKVQWKVDNALQSGNSQESVTEQDSKDSTYSLSSTLTLSKADYEKHKVYACEVTHQGLSSPVTKSFNRGEC | 0.354 nM | 0.114 nM | –
7 | Clone 23.1 (hum23 IgG1 N297Q) (antibody, IgG1 N297Q) heavy: QVQLQESGPGLVKPSQTLSLTCTVSGYTFTNYYVFWVRQARGQRLEWIGDINPVNGDTNFNEKFKNRLTISKDTSKNQVVLTMTNMDPVDTATYYCARGGYTMDYWGQGTLVTVSSASTKGPSVFPLAPSSKSTSGGTAALGCLVKDYFPEPVTVSWNSGALTSGVHTFPAVLQSSGLYSLSSVVTVPSSSLGTQTYICNVNHKPSNTKVDKKVEPKSCDKTHTCPPCPAPELLGGPSVFLFPPKPKDTLMISRTPEVTCVVVDVSHEDPEVKFNWYVDGVEVHNAKTKPREEQYQSTYRVVSVLTVLHQDWLNGKEYKCKVSNKALPAPIEKTISKAKGQPREPQVYTLPPSR light: DIVMTQTPLSLPVTPGEPASISCRSSQSLVHSNGNTYLHWYQQKPGKAPKLLIYKVSYRFSGVPDRFSGSGSGTDFTLKISRVEAEDVGVYYCSQNTHVPRTFGQGTKVEIKRTVAAPSVFIFPPSDEQLKSGTASVVCLLNNFYPREAKVQWKVDNALQSGNSQESVTEQDSKDSTYSLSSTLTLSKADYEKHKVYACEVTHQGLSSPVTKSFNRGEC | 0.0922 nM | 0.0996 nM | –
8 | Clone 23.2 (hum23 IgG4 S228P L235E) (antibody, IgG4 S228P L235E) heavy: not shown light: DIVMTQTPLSLPVTPGEPASISCRSSQSLVHSNGNTYLHWYQQKPGKAPKLLIYKVSYRFSGVPDRFSGSGSGTDFTLKISRVEAEDVGVYYCSQNTHVPRTFGQGTKVEIKRTVAAPSVFIFPPSDEQLKSGTASVVCLLNNFYPREAKVQWKVDNALQSGNSQESVTEQDSKDSTYSLSSTLTLSKADYEKHKVYACEVTHQGLSSPVTKSFNRGEC | 0.192 nM | 0.195 nM | –
